Four substances from IntAct's records for PubMed 24668264 can be followed below.

One assay deals with mlp3b_human MAP1LC3B (UniProt Q9GZQ8).
Assay [1] addresses mlp3c_human MAP1LC3C (UniProt Q9BXW4).
Assay [2] shares this target. The source holds these as a separate data set.
For a further assay, the target named is wdfy3_human WDFY3 (UniProt Q8IZQ1).
Chain of UniProt Q8IZQ1 (Q8IZQ1 whole entry): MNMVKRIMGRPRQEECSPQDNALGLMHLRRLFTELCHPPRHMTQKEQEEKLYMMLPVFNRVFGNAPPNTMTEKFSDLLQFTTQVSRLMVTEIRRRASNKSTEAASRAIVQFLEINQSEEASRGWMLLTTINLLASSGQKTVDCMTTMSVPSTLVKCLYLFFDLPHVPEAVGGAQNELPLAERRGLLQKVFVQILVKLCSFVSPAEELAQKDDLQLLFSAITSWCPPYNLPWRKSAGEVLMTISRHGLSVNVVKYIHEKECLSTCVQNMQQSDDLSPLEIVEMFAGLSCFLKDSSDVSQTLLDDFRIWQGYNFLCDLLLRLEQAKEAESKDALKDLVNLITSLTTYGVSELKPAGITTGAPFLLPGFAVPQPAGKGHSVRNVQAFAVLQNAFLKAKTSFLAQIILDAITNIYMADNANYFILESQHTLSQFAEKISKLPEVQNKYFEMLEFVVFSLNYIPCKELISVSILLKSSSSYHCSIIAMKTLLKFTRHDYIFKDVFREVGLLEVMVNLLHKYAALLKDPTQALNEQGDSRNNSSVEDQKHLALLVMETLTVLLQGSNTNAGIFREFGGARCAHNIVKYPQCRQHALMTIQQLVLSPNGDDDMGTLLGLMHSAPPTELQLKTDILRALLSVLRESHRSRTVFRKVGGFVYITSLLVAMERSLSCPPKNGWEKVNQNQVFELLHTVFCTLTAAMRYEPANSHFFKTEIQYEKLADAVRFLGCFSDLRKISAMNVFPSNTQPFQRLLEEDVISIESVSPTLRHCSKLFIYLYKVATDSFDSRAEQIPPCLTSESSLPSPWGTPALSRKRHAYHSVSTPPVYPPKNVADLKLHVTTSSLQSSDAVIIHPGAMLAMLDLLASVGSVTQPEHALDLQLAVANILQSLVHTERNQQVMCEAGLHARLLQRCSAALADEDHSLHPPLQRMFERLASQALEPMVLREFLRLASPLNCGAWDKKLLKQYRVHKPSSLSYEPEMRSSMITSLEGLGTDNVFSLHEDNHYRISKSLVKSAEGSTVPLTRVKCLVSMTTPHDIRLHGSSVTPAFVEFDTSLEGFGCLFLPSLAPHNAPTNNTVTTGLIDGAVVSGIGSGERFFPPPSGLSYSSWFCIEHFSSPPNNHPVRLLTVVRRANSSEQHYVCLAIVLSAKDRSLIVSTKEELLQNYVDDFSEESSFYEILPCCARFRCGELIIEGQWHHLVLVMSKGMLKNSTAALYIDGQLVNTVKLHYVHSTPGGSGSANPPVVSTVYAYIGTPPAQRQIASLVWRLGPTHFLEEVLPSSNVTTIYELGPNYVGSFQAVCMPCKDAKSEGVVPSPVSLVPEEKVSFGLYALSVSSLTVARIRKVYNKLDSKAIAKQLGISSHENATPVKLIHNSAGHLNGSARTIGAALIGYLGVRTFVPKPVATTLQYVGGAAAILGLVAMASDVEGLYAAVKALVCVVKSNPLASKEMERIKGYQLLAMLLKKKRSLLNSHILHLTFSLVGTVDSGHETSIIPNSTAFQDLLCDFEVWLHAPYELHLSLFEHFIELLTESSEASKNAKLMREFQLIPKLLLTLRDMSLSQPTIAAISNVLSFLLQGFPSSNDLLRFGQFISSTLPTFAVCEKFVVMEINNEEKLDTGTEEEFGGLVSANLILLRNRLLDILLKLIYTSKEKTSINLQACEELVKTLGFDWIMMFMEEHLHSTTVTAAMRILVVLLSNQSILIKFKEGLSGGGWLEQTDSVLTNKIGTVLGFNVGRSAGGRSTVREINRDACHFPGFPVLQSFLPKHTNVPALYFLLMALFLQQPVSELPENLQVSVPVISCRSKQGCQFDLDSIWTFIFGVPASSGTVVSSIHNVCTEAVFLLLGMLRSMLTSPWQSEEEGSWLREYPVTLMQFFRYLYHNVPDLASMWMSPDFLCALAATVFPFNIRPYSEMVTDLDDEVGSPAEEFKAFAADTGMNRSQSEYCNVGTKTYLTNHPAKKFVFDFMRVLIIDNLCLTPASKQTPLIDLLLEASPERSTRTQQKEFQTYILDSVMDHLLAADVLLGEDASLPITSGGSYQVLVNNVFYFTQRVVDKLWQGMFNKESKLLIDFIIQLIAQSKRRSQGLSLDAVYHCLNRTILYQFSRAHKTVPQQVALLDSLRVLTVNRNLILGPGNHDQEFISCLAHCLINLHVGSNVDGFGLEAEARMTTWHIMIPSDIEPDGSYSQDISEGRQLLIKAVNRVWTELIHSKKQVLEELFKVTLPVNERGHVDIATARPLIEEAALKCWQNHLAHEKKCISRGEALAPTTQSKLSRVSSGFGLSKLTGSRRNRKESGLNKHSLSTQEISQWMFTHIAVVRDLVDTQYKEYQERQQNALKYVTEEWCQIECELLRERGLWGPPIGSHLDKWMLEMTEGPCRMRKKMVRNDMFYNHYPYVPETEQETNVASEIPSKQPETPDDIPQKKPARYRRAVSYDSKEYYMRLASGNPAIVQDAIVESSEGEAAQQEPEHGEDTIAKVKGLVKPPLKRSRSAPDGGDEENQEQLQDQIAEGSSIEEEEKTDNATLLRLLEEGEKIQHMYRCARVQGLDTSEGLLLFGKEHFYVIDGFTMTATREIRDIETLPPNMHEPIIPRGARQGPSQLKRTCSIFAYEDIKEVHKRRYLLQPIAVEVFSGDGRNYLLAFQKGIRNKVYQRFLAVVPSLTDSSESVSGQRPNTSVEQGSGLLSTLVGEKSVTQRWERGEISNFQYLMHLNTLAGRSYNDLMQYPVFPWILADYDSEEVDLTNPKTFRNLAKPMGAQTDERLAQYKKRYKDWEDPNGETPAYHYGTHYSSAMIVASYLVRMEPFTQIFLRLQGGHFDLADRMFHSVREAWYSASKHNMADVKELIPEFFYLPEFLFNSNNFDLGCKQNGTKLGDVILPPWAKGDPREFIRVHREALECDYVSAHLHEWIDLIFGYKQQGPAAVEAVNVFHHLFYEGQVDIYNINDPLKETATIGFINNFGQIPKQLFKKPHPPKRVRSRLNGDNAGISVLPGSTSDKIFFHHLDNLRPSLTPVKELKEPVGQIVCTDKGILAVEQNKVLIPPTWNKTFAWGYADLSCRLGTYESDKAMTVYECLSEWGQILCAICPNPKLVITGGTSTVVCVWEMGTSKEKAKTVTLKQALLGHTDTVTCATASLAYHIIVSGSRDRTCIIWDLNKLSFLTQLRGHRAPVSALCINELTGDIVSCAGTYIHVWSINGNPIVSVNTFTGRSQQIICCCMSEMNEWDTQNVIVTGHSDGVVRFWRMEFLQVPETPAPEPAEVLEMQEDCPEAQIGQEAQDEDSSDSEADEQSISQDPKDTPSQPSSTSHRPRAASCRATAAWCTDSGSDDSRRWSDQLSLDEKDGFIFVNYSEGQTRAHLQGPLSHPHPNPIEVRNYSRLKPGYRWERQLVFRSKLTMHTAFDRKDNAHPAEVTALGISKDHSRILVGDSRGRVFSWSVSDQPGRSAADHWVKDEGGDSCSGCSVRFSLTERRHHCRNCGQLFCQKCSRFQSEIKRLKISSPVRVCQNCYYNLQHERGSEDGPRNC

Chain of UniProt Q9BXW4 (Q9BXW4 whole entry): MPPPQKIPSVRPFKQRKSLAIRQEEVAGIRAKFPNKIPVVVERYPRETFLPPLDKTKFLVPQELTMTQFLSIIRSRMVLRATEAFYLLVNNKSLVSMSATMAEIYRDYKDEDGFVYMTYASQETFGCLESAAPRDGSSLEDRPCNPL

Consider “WD repeat and FYVE domain-containing protein 3 (Homo sapiens), Q8IZQ1 F3346A”, for which the “effect of a mutation on the interaction” value with mlp3b_human MAP1LC3B is “disrupting interaction”.
For “WD repeat and FYVE domain-containing protein 3 (Homo sapiens), Q8IZQ1 I3347A”, the “effect of a mutation on the interaction” value with mlp3c_human MAP1LC3C [1] is “decreasing interaction”.
With “WD repeat and FYVE domain-containing protein 3 (Homo sapiens), Q8IZQ1 V3349A”, the “effect of a mutation on the interaction” value with mlp3c_human MAP1LC3C [2] is “decreasing interaction”.
Regarding “Microtubule-associated protein 1 light chain 3 beta (Homo sapiens) (from UniProt Q9GZQ8) Q26K;H27Y;H57D”, the “effect of a mutation on the interaction” value in the assay with wdfy3_human WDFY3 is on record as “increasing interaction”.
